# Assay results reported in patent US20090324700A1, “METHODS AND COMPOSITIONS FOR THE INHIBITION OF CATHEPSINS” (priority 2003, published 2009).
# T1: caspase 3 (Homo sapiens, UniProt P42574)
# T1 construct: purchased Calbiochem or Athens Research and Technology
# T1 sequence (P42574 29-175 limits assumed): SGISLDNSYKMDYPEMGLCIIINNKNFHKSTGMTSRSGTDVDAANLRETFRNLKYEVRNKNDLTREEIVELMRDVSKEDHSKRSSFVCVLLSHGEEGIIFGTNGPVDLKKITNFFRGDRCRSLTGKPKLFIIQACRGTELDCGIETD
# T1 sequence (P42574 176-277 limits assumed): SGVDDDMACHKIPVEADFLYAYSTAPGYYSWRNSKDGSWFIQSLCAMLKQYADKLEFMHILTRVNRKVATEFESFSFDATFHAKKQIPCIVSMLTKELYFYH
# B1: Spi2A: murine Spi2A polypeptide, SEQ ID NO:2; purified as C-terminal 3×FLAG protein or expressed from MIGR1 retrovirus in cells and bone-marrow chimeras (protein, listed as Mus musculus)
# chain: MAGVSPAVFGCPDVTLGRNTAVREVQENVTSVDSLTLVSSNTDFAFSLYRKLVLKNPDENVVFSPFSICTALALLSLGAKSNTLKEILEGLKFNLTETPEPDIHQGFRYLLDLLSQPGNQVQISTGSALFIEKHLQILAEFKEKARALYQAEAFTADFQQPLKATKLINDYVSNHTQGKIKELISGLKESTLMVLVNYIYFKGKWKNPFDPNDTFKSEFYLDEKRSVIVSMMKTGYLTTPYFRDEELSCTVVELKYTGNASAMFILPDQGRMQQVEASLQPETLRKWKNSLKPRMIHELRLPKFSISTDYSLEHILPELGIREVFSTHADLSAITGTKDLRVSQVVHKAVLDVAEKGTEAAAATGMAGVGCCAVFDFLEIFFNRPFLMIISDTKAHIALFMAKVTNPERSTNFPNGEGASSQRLESKRLCFGDPLCLIGQ
# modifications: C-terminal 3xFLAG tag
# notes: purified as C-terminal 3×FLAG protein or expressed from MIGR1 retrovirus in cells and bone-marrow chimeras
# Experiments:
# [1] = tested on: secondary anti-LCMV CD8 cells; settings: mouse, in vivo
# [2] = target: T1, caspase 3; assay: Protease specificity of Spi2A: caspase 3; type: biochemical; settings: FIG. 6B
# Procedure: (§1) Protease specificity of Spi2A. RelA^−/− MEFs were transduced with retrovirus encoding Spi2A with a C-terminal 3×FLAG epitope tag and Spi2A-3×FLAG purified using a method described previously (Cooley et al., 1998). Briefly, cells (3×10^9) were lysed and Spi2A-3×FLAG (75 μg) purified by batch Q-Fast Flow ion-exchange chromatography (Pharmacia Biotech) after elution at 160-220 mM NaCl followed by anti-FLAG antibody columns, performed according to manufacturer's instructions (Sigma-Aldrich). Spi2A-3×FLAG was dialysed into PBS and stored as aliquots at −80° C. until needed.
# (§2) Proteases were purchases from the manufacturers (Calbiochem or Athens Research and Technology) except granzymes A and B which were purified as described (Hanna et al., 1993) and cathespin V and K, which were purified as described (Bromme et al., 1999; Linnevers et al., 1997). Proteases (20 nM) were incubated in the appropriate assay buffer with Spi2A at 200 nM (at least 10-fold excess of inhibitor to maintain pseudo-first order conditions) for 1 h at 37° C. Control samples included only the enzyme, without the inhibitor. At the end of 1 h protease activity was assayed. […] Substrate hydrolysis was measured in a fluorescence microtiter plate reader (Spectramax Gemini XS, Molecular Devices). Percentage inhibition was calculated from the residual enzyme activity compared to no Spi2A controls. […]
# [3] = target: T2, human cathepsin L (Homo sapiens, UniProt P07711); assay: Protease specificity of Spi2A: cathepsin L; type: biochemical; settings: protease 20 nM, Spi2A 200 nM, 1 h at 37° C; FIG. 6B
# T2 construct: purchased Calbiochem or Athens Research and Technology
# Procedure: as §1, §2
# [4] = tested on: RelA^−/− MEFs; assay: Survival assay, TNF-α and CHX, RelA^−/− MEFs; type: cell-based, mouse
# [5] = target: T3, caspase 8 (Homo sapiens, UniProt Q14790); assay: Protease specificity of Spi2A: caspase 8; type: biochemical; settings: FIG. 6B
# T3 construct: purchased Calbiochem or Athens Research and Technology
# Procedure: as §1, §2
# T3 sequence (Q14790 217-374 limits assumed, species assumed): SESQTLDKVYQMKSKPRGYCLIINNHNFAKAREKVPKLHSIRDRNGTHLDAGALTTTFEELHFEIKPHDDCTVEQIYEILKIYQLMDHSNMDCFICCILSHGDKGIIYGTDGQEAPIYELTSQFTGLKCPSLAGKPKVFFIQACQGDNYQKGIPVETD
# T3 sequence (Q14790 385-479 limits assumed, species assumed): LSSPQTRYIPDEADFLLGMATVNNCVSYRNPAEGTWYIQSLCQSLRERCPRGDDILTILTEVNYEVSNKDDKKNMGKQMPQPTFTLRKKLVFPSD
# T2 sequence (P07711 114-333): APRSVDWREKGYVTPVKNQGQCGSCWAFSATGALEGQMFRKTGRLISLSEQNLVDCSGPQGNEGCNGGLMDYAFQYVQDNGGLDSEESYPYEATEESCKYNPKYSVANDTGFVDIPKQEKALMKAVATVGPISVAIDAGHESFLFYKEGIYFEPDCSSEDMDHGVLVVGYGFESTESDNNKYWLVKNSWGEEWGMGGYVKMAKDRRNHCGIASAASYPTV
molecule,measurement,setting,value
B1,Number of anti-LCMV CD8 cells per spleen GFP^−,[1],45.94 ± 7.55 (n = 4) ×10^−5
same,Percentages and absolute numbers of secondary anti-LCMV CD8 cells (recall response),[1],significantly increased
same,proportional change of anti-LCMV CD8 cells compared to the GFP control,[1],(417%)
same,Inhibition of protease by Spi2A (percentage inhibition),[2],did not extend to any of the caspases tested
same,Inhibition of protease by Spi2A (percentage inhibition),[3],"extended to all of the lysosomal, papain-like proteases that were examined"
same,Protection at low concentrations of TNF-α,"[4]; 0.5 ng/ml TNF-α, FIG. 2B",virtually complete
same,"Percentage survival after TNF-α and CHX, retrovirally transduced cells vs GFP","[4]; 16 h, CHX 0.1 μg/ml, FIG. 1B, 2B",markedly improved survival
same,Protection at high concentrations of TNF-α,"[4]; after 16 hours, FIG. 2B",dramatic
same,Inhibition of protease by Spi2A (percentage inhibition),[5],did not extend to any of the caspases tested
